Among the data in PMC8392543 are Km and kcat/Km values, retold here.

The chains are these.
B1: EsOgl (Exiguobacterium artemiae 255-15; A109P/E176P/K441P/S130P) (protein)
chain: MERKWWHDSVVYQIYPRSFNDSNGDGIGDLVGIIEKLDYLKELGIDVIWLSPVYDSPNDDNGYDIRDYEAIMSEFGTMADFDRLLDQAHERGIKIVMDLVINHSSDEHPWFAESRKSKDNPYRDYYIWRPANEDGTLPNNWGSIFSGPAWELDEATNEYYLHLFSKKQPDLNWENPKLRQEVYQMITRWLDRGIDGFRMDVINLISKTPGLPDATVPPGALYGDGGQHYINGPRIHEFLKEMNDASFGNYDVLTVGEMPGATTDDAILYTDPERKEVNMVFTFEHMDLDSGPGGKWDVKPFDLQKLKENFTKWQVALHEKGWNSLYWNNHDQPRVVSRFGNDTTYRVESAKMLATLLHLLKGTPYIYQGEEIGMTNVAFESIEDYEDIEIRNMWKERTEQGASPAELLRAVHVKGRDNARTPIQWDATEHAGFTTGTPWLPVNPNYPTINVEQALEDPDSIFYYYKQLIALRHQHDVIVYGEYALILEEETDIYAYTRTYENETWYIYCSFSQEEVTVPLSHDTSDPVIGNYSESPAGSKEELVLRPYEAIVYRTTR
B2: EsOgl (Exiguobacterium artemiae 255-15) (protein)
chain: B1 chain with P109A, P130S, P176E, P441K
B3: EsOgl (Exiguobacterium artemiae 255-15; E176P) (protein)
chain: B1 chain with P109A, P130S, P441K
B4: EsOgl (Exiguobacterium artemiae 255-15; A109P/S130P) (protein)
chain: B1 chain with P176E, P441K
B5: EsOgl (Exiguobacterium artemiae 255-15; A109P) (protein)
chain: B1 chain with P130S, P176E, P441K
B6: EsOgl (Exiguobacterium artemiae 255-15; A109P/E176P/S130P) (protein)
chain: B1 chain with P441K
B7: EsOgl (Exiguobacterium artemiae 255-15; K441P) (protein)
chain: B1 chain with P109A, P130S, P176E
B8: EsOgl (Exiguobacterium artemiae 255-15; S130P) (protein)
chain: B1 chain with P109A, P176E, P441K

Where a chain is given by its changes, count along the chain named. Names and notes keep the numbering of the source.

Substrate in this series: O=[N+]([O-])c1ccc(O[C@H]2O[C@H](CO)[C@@H](O)[C@H](O)[C@H]2O)cc1
Description: purified protein. As to conditions: 33 mM potassium phosphate pH 7.0, 25 °C.
Take B1: the Michaelis constant (Km) (commonly the concentration of substrate that gives half-maximal velocity) was 850 ± 20 µM and the kcat/Km (commonly the second-order rate constant that governs catalysis at low substrate concentration) came to 167000 M⁻¹ s⁻¹.
As for B2, the Km is 1060 ± 20 µM and the kcat/Km was 233000 M⁻¹ s⁻¹.
The corresponding values for B3 are 1970 ± 80 µM and 167000 M⁻¹ s⁻¹.
Turning to B4, the Km was determined as 1370 ± 40 µM and the catalytic efficiency (kcat/Km) worked out at 167000 M⁻¹ s⁻¹.
The corresponding values for B5 are 1430 ± 90 µM and 167000 M⁻¹ s⁻¹.
In the case of B6, the Michaelis constant (Km) turned out to be 920 ± 70 µM and the kcat/Km turned out to be 217000 M⁻¹ s⁻¹.
The corresponding values for B7 are 930 ± 80 µM and 183000 M⁻¹ s⁻¹.
With B8, the Km was 1660 ± 60 µM and the kcat/Km came to 250000 M⁻¹ s⁻¹.
